From patent publication US20150344548A1 (XBIOTECH, published 2015) come the findings set out here.

The target of this test is T1, commercial wildtype SpA (Staphylococcus aureus protein A) (Staphylococcus aureus, UniProt A0A0H3K686 37-477).
T1 construct: Bought wildtype SpA; also called SpA-coated beads; antigen
The experiment in a line: Bio-Layer Interferometry (ForteBio Octet Red 96), 20 nM antigen. Background: In BLI a coated tip is dipped into the sample, and binding shifts an interference pattern.

T1 sequence (A0A0H3K686 37-477 limits assumed): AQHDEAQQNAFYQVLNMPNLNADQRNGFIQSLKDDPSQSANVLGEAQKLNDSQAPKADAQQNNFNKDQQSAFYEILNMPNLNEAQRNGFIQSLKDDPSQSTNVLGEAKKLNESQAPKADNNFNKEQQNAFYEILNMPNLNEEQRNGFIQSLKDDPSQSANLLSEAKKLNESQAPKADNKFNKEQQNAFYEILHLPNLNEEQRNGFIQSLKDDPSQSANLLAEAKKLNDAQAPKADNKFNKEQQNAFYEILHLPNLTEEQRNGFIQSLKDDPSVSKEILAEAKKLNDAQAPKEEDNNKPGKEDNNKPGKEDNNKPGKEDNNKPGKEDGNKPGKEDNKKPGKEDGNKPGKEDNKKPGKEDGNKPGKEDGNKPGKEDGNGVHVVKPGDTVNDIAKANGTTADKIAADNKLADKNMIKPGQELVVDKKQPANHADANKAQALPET

B1: PA7.2-G3 Ab (antibody)
heavy: EVQLVESRGGLVQPGGSLRLSCAASGFTFSNYAMSWVRQAPGKGLEWVSTISGSDGGTYYADSVKGRFTISRDNSGNTVYLQMNSLREDDTAVYYCARVGLSAPVTFFDFWGQGTLVTVSSASTKGPSVFPLAPCSRSTSGGTAALGCLVKDYFPEPVTVSWNSGALTSGVHTFPAVLQSSGLYSLSSVVTVPSSSLGTQTYTCNVNHKPSNTKVDKRVELKTPLGDTTHTCPRCPEPKSCDTPPPCPRCPEPKSCDTPPPCPRCPEPKSCDTPPPCPRCPAPELLGGPSVFLFPPKPKDTLMISRTPEVTCVVVDVSHEDPEVQFKWYVDGVEVHNAKTKPREEQYNSTFRVVSVLTVLHQDWLNGKEYKCKVSNKALPAPIEKTISKTKGQPREPQVYTLPPSREEMTKNQVSLTCLVKGFYPSDIAVEWESSGQPENNYNTTPPMLDSDGSFFLYSKLTVDKSRWQQGNIFSCSVMHEALHNRFTQKSLSLSPGK
light: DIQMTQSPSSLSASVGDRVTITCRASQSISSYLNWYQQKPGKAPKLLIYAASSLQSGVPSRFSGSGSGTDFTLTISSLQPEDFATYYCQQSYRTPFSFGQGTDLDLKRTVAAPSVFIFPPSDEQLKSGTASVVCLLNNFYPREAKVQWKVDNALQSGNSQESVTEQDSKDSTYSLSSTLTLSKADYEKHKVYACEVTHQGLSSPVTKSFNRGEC
notes: Human IgG3; copies: 2 + 2
As for B1, the Kd was below 1 pM.

For orientation: Kd means the free concentration of one partner at which half of the binding sites on the other are occupied at equilibrium, for simple one-to-one binding. Low readings indicate tighter binding, high ones weaker binding.
